From the supplement of paper PMC9732359
± gives the uncertainty stated by the source.

Assay: protein stability index of a GFP-peptide fusion (yeast GPS) (PSI 1-4); higher = more stable; sorted into four equal gates, so the index is relative within each strain
Procedure, shortened: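 The protein stability index combines read frequencies across sorting gates, each weighted by its gate number and then summed. To obtain those frequencies, a pooled yeast library of GFP fusions to tiled 17-residue yeast protein peptides, on a plasmid also expressing Cherry, was grown to mid-log phase in leucine-free medium. The cells were sorted into four equal gates by GFP/Cherry ratio before plasmid amplification by PCR and Illumina sequencing.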

Sequence	protein stability index (doa10∆)	protein stability index (pdr5∆)	protein stability index (san1∆)	protein stability index (ubr1∆)
KLVRDAFALAKEKAPTI [RPT5]	2.56 ± 0.072	2.49 ± 0.09	2.94 ± 0.083	3.08 ± 0.083
KLVTYIVKFKQKEEGRS [YLR335W/NUP2]	3.1 ± 0.06	3.1 ± 0.067	3.33 ± 0.044	3.34 ± 0.051
KLYDAKRYTSEGTRNRF [YMR129W/POM152]	3.02 ± 0.098	3.15 ± 0.087	3.23 ± 0.058	3.02 ± 0.055
KMATDNKINSRNSWNFA [BRN1]	–	2.94 ± 0.12	–	1.92 ± 0.12
KMDFSSKEGQYKAKIKE [YIL149C/MLP2]	3.2 ± 0.074	3.27 ± 0.071	3.17 ± 0.063	3.16 ± 0.048
KMLNEFVKKTSEEIDSL [SMC2]	2.61 ± 0.099	3.19 ± 0.15	–	3.09 ± 0.12
KMLSCAGADRLQQGMRG [RPL10]	3.43 ± 0.12	3.28 ± 0.13	2.98 ± 0.11	3.32 ± 0.085
KNDLFVIWSEDNDEKLI [RPO21]	2.83 ± 0.077	2.55 ± 0.096	3.1 ± 0.045	2.44 ± 0.089
KNEKLKFQETLLRQKIE [ISW2]	1.36 ± 0.11	1.37 ± 0.13	1.16 ± 0.15	1.15 ± 0.071
KNGVIPEESKGSFKYIT [SWP82]	3.03 ± 0.05	3.09 ± 0.067	2.96 ± 0.047	3.18 ± 0.052
KNIPKTRYNRDYMLSMA [SNU114]	1.94 ± 0.054	2.4 ± 0.054	2.9 ± 0.056	1.87 ± 0.039
KNKENNTFTWNHSLQHQ [RPN4]	2.37 ± 0.083	2.34 ± 0.096	2.25 ± 0.067	1.95 ± 0.046
KNLQRESCEDILDLKEF [RTT102]	3.59 ± 0.21	3.31 ± 0.13	3.17 ± 0.28	3.45 ± 0.16
KNNNGDEKNKNNNEDNE [MED2]	3.23 ± 0.12	3.17 ± 0.11	2.87 ± 0.11	3.15 ± 0.11
KNNNNANNNGSNLQRAQ [GAL11]	3.38 ± 0.13	–	3.28 ± 0.14	3.02 ± 0.11
KNNSSIRNVIMSASNAN [SRB8]	1.59 ± 0.037	2.13 ± 0.053	1.88 ± 0.095	1.75 ± 0.044
KNPHDIIEGINAGEIEI [RPL12A]	2.66 ± 0.075	2.44 ± 0.075	2.22 ± 0.096	2.34 ± 0.06
KNQLRDWIRFVSIRQNQ [RPL22B]	1.51 ± 0.1	1.64 ± 0.061	–	1.29 ± 0.091
KNSRVELQKIYDRHQSS [SMC4]	3.46 ± 0.098	3.01 ± 0.15	3.37 ± 0.11	3.14 ± 0.11
KNYDATDKPFSSTQDVI [CSI1]	2.37 ± 0.13	2.96 ± 0.1	2.85 ± 0.088	3.06 ± 0.086
KPKAVARKSKEEREAAA [RPC53]	2.57 ± 0.19	3.12 ± 0.1	2.61 ± 0.15	2.64 ± 0.17
KPLADLRPLFTRYELYI [YLR335W/NUP2]	2.4 ± 0.048	2.04 ± 0.04	2.09 ± 0.073	2.02 ± 0.029
KPNNTANTGGGLFGANS [YGL172W/NUP49]	3.16 ± 0.14	3.28 ± 0.089	3.03 ± 0.072	3.08 ± 0.089
KPNQTIMVLDASIGQAA [SRP54]	2.44 ± 0.095	2.65 ± 0.075	2.69 ± 0.07	2.64 ± 0.049
KPSFSFGVPNSSKNETS [YLR335W/NUP2]	2.13 ± 0.077	1.64 ± 0.082	2.46 ± 0.098	1.5 ± 0.059
KPYVDRFAFSVIWELDD [DIS3]	1.93 ± 0.046	1.98 ± 0.047	2.15 ± 0.05	2.38 ± 0.034

Sequence	protein stability index (doa10∆)	protein stability index (pdr5∆)	protein stability index (san1∆)	protein stability index (ubr1∆)
KQDCVDWFTYSYFYRRI [BRR2]	1.69 ± 0.036	1.32 ± 0.032	1.51 ± 0.053	1.41 ± 0.029
KQDEKKSSELELQKLVH [SMC2]	3.23 ± 0.13	3.5 ± 0.097	3.4 ± 0.071	3.35 ± 0.051
KQENSSRFTNVSVIAPE [YMR153W/NUP53]	2.71 ± 0.065	2.54 ± 0.055	1.59 ± 0.062	2.49 ± 0.033
KQFVVDVLHPNRANVSK [RPS24A]	2.94 ± 0.073	3.24 ± 0.082	2.96 ± 0.079	3.07 ± 0.05
KQHAVLMLGSVNLPGGI [RRP4]	2 ± 0.049	2.17 ± 0.058	1.94 ± 0.081	1.66 ± 0.037
KQQEQLEQQKQPTGLLK [YMR153W/NUP53]	3.35 ± 0.13	3.12 ± 0.14	2.97 ± 0.069	3.15 ± 0.065
KQRAGTASFIPLDTIET [SMC1]	2.62 ± 0.06	2.82 ± 0.064	2.65 ± 0.056	2.66 ± 0.051
KQREIVKAFLSIFEDAI [NUT1]	1.92 ± 0.081	1.65 ± 0.071	2.38 ± 0.19	1.76 ± 0.1
KQRFQGCNNLIKNISNR [ARP9]	2.89 ± 0.07	2.88 ± 0.048	3.26 ± 0.063	3.03 ± 0.048
KQRKNPRRIAWTVLFRK [RPL24A]	3.03 ± 0.14	2.27 ± 0.1	1.41 ± 0.25	2.27 ± 0.048
KQVLDVDPVYKDVAKPT [FAS2]	2.98 ± 0.065	2.99 ± 0.058	3.08 ± 0.037	2.86 ± 0.041
KRAEKAARKAEKAKSAG [RPL24B]	2.91 ± 0.073	2.48 ± 0.051	1.55 ± 0.087	2.92 ± 0.04
KRAFTKKVASANATAAE [RPL16A]	2.73 ± 0.068	2.69 ± 0.06	2.82 ± 0.04	2.55 ± 0.037
KRCMDDLNPLKTLNLFK [RPO31]	2.98 ± 0.15	2.99 ± 0.074	2.69 ± 0.12	2.92 ± 0.064
KRFLILQGEVENIAQMK [SMC4]	3.05 ± 0.29	2.98 ± 0.14	3.2 ± 0.14	2.79 ± 0.098
KRIESLQKDLQRQKTYV [SMC1]	3.01 ± 0.16	3.2 ± 0.13	2.85 ± 0.21	2.9 ± 0.15
KRIKGLEFSALSAADIV [RPO31]	3.09 ± 0.09	3.15 ± 0.076	3.15 ± 0.061	3.24 ± 0.067
KRLLGTAFKSSPFGGSS [RPS23A]	2.22 ± 0.043	2.61 ± 0.045	2.33 ± 0.055	2.23 ± 0.034
KRLNFSFVGDYMHDTEL [GRR1]	2.55 ± 0.065	1.89 ± 0.073	2.47 ± 0.11	3.22 ± 0.085
KRPGKLSDYIPGPYPNE [CYT1]	3.19 ± 0.059	3.22 ± 0.06	3.24 ± 0.041	3.16 ± 0.037
KRPRSRTLTAVHDKVLE [RPS7B]	3.36 ± 0.17	2.99 ± 0.13	3.02 ± 0.07	2.08 ± 0.24
KRPTPPSFTFGGSTTNN [YOR098C/NUP1]	2.74 ± 0.051	3.03 ± 0.048	2.78 ± 0.043	2.9 ± 0.032
KRRFGELMDRTGLKLYS [RPP1]	2.21 ± 0.18	2.98 ± 0.12	2.23 ± 0.11	2.45 ± 0.11
KRSMDAEQLGHASKRHK [RPP1]	2.54 ± 0.058	2.79 ± 0.056	2.68 ± 0.056	2.61 ± 0.054
KRSQKKHKKKHLKHENA [RPB4]	3.03 ± 0.044	2.96 ± 0.052	3.09 ± 0.037	3.25 ± 0.043
